Measured values published in PMC2132475.

Molecular target: α-dystroglycan on embryonic Xenopus myotomal muscle cells (Xenopus (endogenous in embryonic Xenopus muscle cells))
Assay: immunostaining of cells or tissue

- percent inhibition of mAb IIH6 binding (at 33 nM E3): 41%
- percent inhibition of mAb IIH6 binding (at 3.3 μM E3): 94%
Substance: laminin fragment E3 (domain or fragment)
